Reference: US20150344570A1 (published 2015)

T1: FcγRIIb extracellular domain with C-terminal His tag (human, UniProt P31994 43-217)
T1 construct: extracellular domain; also called FcgRIIb; 2b
T1 sequence (looked up): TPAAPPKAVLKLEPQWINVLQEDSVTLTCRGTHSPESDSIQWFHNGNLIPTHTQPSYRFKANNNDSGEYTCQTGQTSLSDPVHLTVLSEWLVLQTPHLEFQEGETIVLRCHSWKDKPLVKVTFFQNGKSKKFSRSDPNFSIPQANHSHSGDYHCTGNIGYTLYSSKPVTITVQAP


Biological target: T1, FcγRIIb extracellular domain with …
Test: SPR (Biacore), relative binding
Procedure: Analysis of interaction between objective antibody and the FcγR was carried out using Biacore T100 (GE Healthcare). HBS-EP+ (GE Healthcare) was used as the running buffer, and the measurement temperature was set to 25° C. Chips produced by immobilizing the antigen peptide by the amine coupling method to a Series S Sencor Chip CM5 (GE Healthcare), or alternatively, chips produced by allowing preliminarily biotinylated antigen peptides to interact with and immobilize onto a Series S Sensor Chip SA (certified) (GE Healthcare) were used. Antibodies of interest were captured onto an antigen peptide-immobilized chip, and allowed to interact to each FcγR diluted with running buffer. To regenerate and repeatedly use the chip, the antibodies captured on the chip were washed off by reacting 10 mM glycine-HCl, pH 1.5.

| He/Con_2b | Ho/Con_2b | Binder |
| --- | --- | --- |
| 113 % of HeCon Ab GpH7-A5/GpH7-B3/GpL16-k0 | – | GpH7-A5/GpH7-B3 variant A327_18N/GpL16-k0 (antibody, human IgG1, kappa, also called He Ab A327_18N) heavy 1: not shown heavy 2: not shown light: DIVMTQSPLSLPVTPGEPASISCQASESLVHSNRNTYLHWYLQKPGQSPQLLIYKVSNRFSGVPDRFSGSGSGTDFTLKISRVEAEDVGVYYCSQNTHVPPTFGQGTKVEIERTVAAPSVFIFPPSDEQLKSGTASVVCLLNNFYPREAKVQWKVDNALQSGNSQESVTEQDSKDSTYSLSSTLTLSKADYEKHKVYACEVTHQGLSSPVTKSFNRGEC |
| – | 96.1 % of HoCon Ab GpH7-B3/GpL16-k0 | GpH7-B3 variant T335_18N/GpL16-k0 (antibody, human IgG1, kappa, also called Ho Ab T335_18N) heavy: not shown light: DIVMTQSPLSLPVTPGEPASISCQASESLVHSNRNTYLHWYLQKPGQSPQLLIYKVSNRFSGVPDRFSGSGSGTDFTLKISRVEAEDVGVYYCSQNTHVPPTFGQGTKVEIERTVAAPSVFIFPPSDEQLKSGTASVVCLLNNFYPREAKVQWKVDNALQSGNSQESVTEQDSKDSTYSLSSTLTLSKADYEKHKVYACEVTHQGLSSPVTKSFNRGEC |
| 149 % of HeCon Ab GpH7-A5/GpH7-B3/GpL16-k0 | – | GpH7-A5/GpH7-B3 variant G237_04F/GpL16-k0 (antibody, human IgG1, kappa, also called He Ab G237_04F) heavy 1: not shown heavy 2: not shown light: DIVMTQSPLSLPVTPGEPASISCQASESLVHSNRNTYLHWYLQKPGQSPQLLIYKVSNRFSGVPDRFSGSGSGTDFTLKISRVEAEDVGVYYCSQNTHVPPTFGQGTKVEIERTVAAPSVFIFPPSDEQLKSGTASVVCLLNNFYPREAKVQWKVDNALQSGNSQESVTEQDSKDSTYSLSSTLTLSKADYEKHKVYACEVTHQGLSSPVTKSFNRGEC |
| 137 % of HeCon Ab GpH7-A5/GpH7-B3/GpL16-k0 | – | GpH7-A5/GpH7-B3 variant A330_05P/GpL16-k0 (antibody, human IgG1, kappa, also called He Ab A330_05P) heavy 1: not shown heavy 2: not shown light: DIVMTQSPLSLPVTPGEPASISCQASESLVHSNRNTYLHWYLQKPGQSPQLLIYKVSNRFSGVPDRFSGSGSGTDFTLKISRVEAEDVGVYYCSQNTHVPPTFGQGTKVEIERTVAAPSVFIFPPSDEQLKSGTASVVCLLNNFYPREAKVQWKVDNALQSGNSQESVTEQDSKDSTYSLSSTLTLSKADYEKHKVYACEVTHQGLSSPVTKSFNRGEC |
| – | 94.4 % of HoCon Ab GpH7-B3/GpL16-k0 | GpH7-B3 variant T335_20W/GpL16-k0 (antibody, human IgG1, kappa, also called Ho Ab T335_20W) heavy: not shown light: DIVMTQSPLSLPVTPGEPASISCQASESLVHSNRNTYLHWYLQKPGQSPQLLIYKVSNRFSGVPDRFSGSGSGTDFTLKISRVEAEDVGVYYCSQNTHVPPTFGQGTKVEIERTVAAPSVFIFPPSDEQLKSGTASVVCLLNNFYPREAKVQWKVDNALQSGNSQESVTEQDSKDSTYSLSSTLTLSKADYEKHKVYACEVTHQGLSSPVTKSFNRGEC |
| 130 % of HeCon Ab GpH7-A5/GpH7-B3/GpL16-k0 | – | GpH7-A5/GpH7-B3 variant G237_06M/GpL16-k0 (antibody, human IgG1, kappa, also called He Ab G237_06M) heavy 1: not shown heavy 2: not shown light: DIVMTQSPLSLPVTPGEPASISCQASESLVHSNRNTYLHWYLQKPGQSPQLLIYKVSNRFSGVPDRFSGSGSGTDFTLKISRVEAEDVGVYYCSQNTHVPPTFGQGTKVEIERTVAAPSVFIFPPSDEQLKSGTASVVCLLNNFYPREAKVQWKVDNALQSGNSQESVTEQDSKDSTYSLSSTLTLSKADYEKHKVYACEVTHQGLSSPVTKSFNRGEC |
| – | 97.2 % of HoCon Ab GpH7-B3/GpL16-k0 | GpH7-B3 variant T335_16H/GpL16-k0 (antibody, human IgG1, kappa, also called Ho Ab T335_16H) heavy: not shown light: DIVMTQSPLSLPVTPGEPASISCQASESLVHSNRNTYLHWYLQKPGQSPQLLIYKVSNRFSGVPDRFSGSGSGTDFTLKISRVEAEDVGVYYCSQNTHVPPTFGQGTKVEIERTVAAPSVFIFPPSDEQLKSGTASVVCLLNNFYPREAKVQWKVDNALQSGNSQESVTEQDSKDSTYSLSSTLTLSKADYEKHKVYACEVTHQGLSSPVTKSFNRGEC |
| 111 % of HeCon Ab GpH7-A5/GpH7-B3/GpL16-k0 | – | GpH7-A5/GpH7-B3 variant G237_13S/GpL16-k0 (antibody, human IgG1, kappa, also called He Ab G237_13S) heavy 1: not shown heavy 2: not shown light: DIVMTQSPLSLPVTPGEPASISCQASESLVHSNRNTYLHWYLQKPGQSPQLLIYKVSNRFSGVPDRFSGSGSGTDFTLKISRVEAEDVGVYYCSQNTHVPPTFGQGTKVEIERTVAAPSVFIFPPSDEQLKSGTASVVCLLNNFYPREAKVQWKVDNALQSGNSQESVTEQDSKDSTYSLSSTLTLSKADYEKHKVYACEVTHQGLSSPVTKSFNRGEC |
| 152 % of HeCon Ab GpH7-A5/GpH7-B3/GpL16-k0 | – | GpH7-A5/GpH7-B3 variant G237_15Y/GpL16-k0 (antibody, human IgG1, kappa, also called He Ab G237_15Y) heavy 1: not shown heavy 2: not shown light: DIVMTQSPLSLPVTPGEPASISCQASESLVHSNRNTYLHWYLQKPGQSPQLLIYKVSNRFSGVPDRFSGSGSGTDFTLKISRVEAEDVGVYYCSQNTHVPPTFGQGTKVEIERTVAAPSVFIFPPSDEQLKSGTASVVCLLNNFYPREAKVQWKVDNALQSGNSQESVTEQDSKDSTYSLSSTLTLSKADYEKHKVYACEVTHQGLSSPVTKSFNRGEC |
| – | 103 % of HoCon Ab GpH7-B3/GpL16-k0 | GpH7-B3 variant Y296_20W/GpL16-k0 (antibody, human IgG1, kappa, also called Ho Ab Y296_20W) heavy: not shown light: DIVMTQSPLSLPVTPGEPASISCQASESLVHSNRNTYLHWYLQKPGQSPQLLIYKVSNRFSGVPDRFSGSGSGTDFTLKISRVEAEDVGVYYCSQNTHVPPTFGQGTKVEIERTVAAPSVFIFPPSDEQLKSGTASVVCLLNNFYPREAKVQWKVDNALQSGNSQESVTEQDSKDSTYSLSSTLTLSKADYEKHKVYACEVTHQGLSSPVTKSFNRGEC |
| – | 104 % of HoCon Ab GpH7-B3/GpL16-k0 | GpH7-B3 variant T335_15Y/GpL16-k0 (antibody, human IgG1, kappa, also called Ho Ab T335_15Y) heavy: not shown light: DIVMTQSPLSLPVTPGEPASISCQASESLVHSNRNTYLHWYLQKPGQSPQLLIYKVSNRFSGVPDRFSGSGSGTDFTLKISRVEAEDVGVYYCSQNTHVPPTFGQGTKVEIERTVAAPSVFIFPPSDEQLKSGTASVVCLLNNFYPREAKVQWKVDNALQSGNSQESVTEQDSKDSTYSLSSTLTLSKADYEKHKVYACEVTHQGLSSPVTKSFNRGEC |
